Test results: patent US20110286916A1 (published 2011)
Substitutions are numbered along the chain they refer to.

B1: N1wc158 (scFv, V domains shown)
VH: EVQLVQSGAEVKKPGASVKVSCKASGYNFTGYYMHWVRQAPGQGLEWMGWINPNSGGTNYAQKFQGRVTMTRDTSISTAYMELSRLRSDDTAVYYCATDSFDYWGRGTLVTVSS
VL: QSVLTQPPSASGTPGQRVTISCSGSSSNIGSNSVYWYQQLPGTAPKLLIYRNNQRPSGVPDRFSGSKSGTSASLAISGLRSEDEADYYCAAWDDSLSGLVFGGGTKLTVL
notes: phage scFv
B2: N1wc103 (scFv, V domains shown)
VH: B1 VH with E1Q, V5Q, M81V
VL: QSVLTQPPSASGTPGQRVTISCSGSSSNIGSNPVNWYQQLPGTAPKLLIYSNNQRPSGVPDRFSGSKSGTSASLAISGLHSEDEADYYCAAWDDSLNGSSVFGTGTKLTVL
notes: phage scFv
B3: N1wc110 (scFv, V domains shown)
VH: B1 VH with R106Q, L109M
VL: QSVVTQPPSASGSPGQRVTIACSGSSSNIGSNTVNWYQHVPGTAPKLLIYNNNQRPSGVQDRFSGSKSDTSASLAISGLQAEDEAVYYCATWDDSLIGLAFGGGTKLTVL
notes: phage scFv
B4: hN1S3-126 (scFv, V domains shown)
VH: B1 VH with R106Q
VL: SYVLTQPPSASGAPGQRVTISCSGSISNIGDNTVNWYQHLPRTAPKLVIYSDVQRPSGVPERFSGSKSGTSASLVISGLQAEDEADYYCASWDDSLDGVFFGGGTKLTVL
notes: phage scFv
B5: hN1S3-174 (scFv, V domains shown)
VH: B1 VH with R106Q, L109T
VL: QSVLTQPPSVSGAPGQRITISCTGSSSNIGAGYDVHWYQQLPGTAPKLLIYGNSYRPSGVPDRFSGSKSGTSASLAITGLQAEDEADYYCQSYDSSLTGSIFGGGTKLTVL
notes: phage scFv
B6: hN1S3-010 (scFv, V domains shown)
VH: B1 VH with T69I, R87T, L109M
VL: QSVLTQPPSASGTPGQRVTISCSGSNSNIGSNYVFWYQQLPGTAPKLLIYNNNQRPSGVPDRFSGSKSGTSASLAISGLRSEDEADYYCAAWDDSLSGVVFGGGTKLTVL
notes: phage scFv
B7: hN1S3-050 (scFv, V domains shown)
VH: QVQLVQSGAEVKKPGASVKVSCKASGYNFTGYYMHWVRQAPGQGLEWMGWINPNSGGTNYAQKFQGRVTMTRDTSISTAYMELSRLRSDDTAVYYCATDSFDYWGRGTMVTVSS
VL: LPVLTQPPSASGTPGQRVTISCSGRSSNIGSNFVYWYQQLPGTAPKLLIYRNNQRPSGVPDRFSGSKSGTSASLAISGLRSEDEADYYCATWDDNLSGVVFGGGTKLTVL
notes: phage scFv
B8: hN1S3-113 (scFv, V domains shown)
VH: B1 VH
VL: SYVLTQPPSASGTPGQRVTISCSGSSPNIGSNTVNWYQQLPGTAPKLLIYTNNQRPSGVPDRFSGSKSATSASLAISGLQFDDEADYFCAAWDDSLLGVVFGGGTKVTVL
notes: phage scFv
B9: N1wc112 (scFv, V domains shown)
VH: EVQLVESGGGLAQPGKSLRISCAASGFTFGDYAMTWVRQAPGKGLEWVSSISGSGSGTYYTDSVKGRFAISRDNSKNTLYPQMNSLAAEDTAIYFCAKDQTDVTIRDFDYWGRGTLVTVSS
VL: SYELTQPPSVSVAPGQTARISCGGDNLGRKSVHWYQQKPGQAPVLVIYEDSKRPSGIPERFSGSSSGTMATLTISGAQVEDEADYYCYSTDSSGNHRVFGGGTKVTVL
notes: phage scFv
B10: N1wc33 (scFv, V domains shown)
VH: EVQLVESGGDLVQPGGSLRLSCAASGFTFSDSWMHWVRQVPGKGLEWVSHIGIDGITTNYADSVKGRFTISRDNAKNTLYLQMNNLRAEDTAVYYCARNVGWESRPWGQGTLVTVSS
VL: SYVLTQPPSASGAPGQRVTISCSGSDSNIGRNTVNWYQQQLPGTAPTLLIYTNNQRPSGVPDRFSGSKSGTSASLAISGLQSGDEADYYCAAWDDSLNAYFFGPGTKLTVL
notes: phage scFv
B11: hN1S3-146 (scFv, V domains shown)
VH: EVQLVQSGPEVKKPGTSVKVSCKASGFTFTSSAVQWVRQARGQRLEWIGWIVVGSGNTNYAQKFQERVTITRDMSTSTAYMELSSLRSEDTAVYYCVADTVYWGKGTLVTVSS
VL: QAVLTQPSSVSEAPRQRVTISCSGSSSNIGKNAVNWYQQLPGKAPKLLIYYDDLMPSGVSDRFSGSKSGTSASLAISGLQSEDEADYFCAAWDDSLSGWVFGGGTKLTVL
notes: phage scFv
B12: N1wc48 (scFv, V domains shown)
VH: QVQLVQSGAEVKKPGATVKISCKVSGYTFTDYYIHWVQQAPGKGLEWMGLVDPEDGETIYAEKFQGRVTIIADTSTDTAYMELSSLRSEDTAVYYCATGPFRLDSWGQGTMVTVSS
VL: QSVLTQPPSVSGAPGQRVTISCTGSSSNIGAGYDVHWYQQLPGSAPKLLIYGNNNRPSGVPDRFSGSKSGTSASLAITGLQAEDEADYYCQSFDNRLSDFNVFGTGTKVTVL
notes: phage scFv
B13: hN1S3-052 (scFv, V domains shown)
VH: QVQLVQSGAEVKKPGASVRISCKTSGFTFTSYFIHWVRQAPGQRPEWMGVINPSRGNADYAPRFRGRVTMTRDKSTHTVYMDLKSLRSDDAAIYYCARDRLGGLLDYYDSSDSSKNFDAFDFWGQGTLVTVSS
VL: QAVLTQPSLASGTPGQRVTISCSGGSSNIGRHTVNWYQQLPGAAPKLLMHSSDQRPSGVPDRFSGSKSGTSASLAISGLQSEDEADYYCAAWDASLKNWVFGGGTKLTVL
notes: phage scFv
B14: hN1S3-067 (scFv, V domains shown)
VH: B13 VH with Q1E
VL: NFMLTQPHSVSESPGKTVIISCTRSSGSIASNYVQWLQQRPGSSPTTVIYDDNRRPSGVPDRFSGSIDGSSNSASLTISGLKTEDEADYYCQSYDRFDHVVFGGGTKLTVL
notes: phage scFv
B15: hN1S3-073 (scFv, V domains shown)
VH: B13 VH
VL: DIQMTQSPSSLSAFVGDRVTITCRASQGINNYLAWFQQKPGKAPKSLIYAASTLRSGVPPRFSGSGSGTDFTLTISSLQPEDFATYYCQQYDSYPHTFGQGTRLEIK
notes: phage scFv
B16: N1wc104 (scFv, V domains shown)
VH: QVQLQESGPGLVKPSGTLSLTCAVSGVSLATNNWWLWVRQSPGKGLEWIGEIYHSGYTNYNPSLKSRVTISVDKSSNQLSLDLRSITAADTAVYYCARRYCDNGVCYPFDHWGQGTMVTVSS
VL: SYVLTQPPSVSEAPRQTVTISCSGNSFNIGRYPVNWYQQLPGKAPKLLIYYNNLRFSGVSDRFSGSKSGTSASLAIRDLLSEDEADYYCSTWDDTLKGWVFGGGTKLTVL
notes: phage scFv
B17: N1wc152 (scFv, V domains shown)
VH: QVQLVQSGGGLVQPGGSLRLSCGASGFTFSSHWMSWVRRPPGRGLEWVANINEGGSAEYYADSLKGRFTISRDNAKNSLFLQMDSLRAEDTAVYYCVRDQFHSNYDWGQGTMVTVSS
VL: QAVLTQPSSVSGAPGQRVTISCTGSSSNIGAPFDVHWYQQLPGTAPKLLIYGNSNRPSGVPDRFSGSKFGTSASLAITGLQAADEADYYCQSYDSSLSGWVFGGGTKLTVL
notes: phage scFv
B18: N1wc99 (scFv, V domains shown)
VH: QVQLVQSGAEVKKPGASVKVSCKASGYTFTSYGISWVRQAPGQGLEWMGWISAYNGNTNYAQKLQGRVTMTTDTSTSTAYMELRSLRSDDTAVYYCARLASRAFDIWGRGTLVTVSS
VL: QSVLTQPASVSGSPGQSITISCTGTSSDVGGYNYVSWYQQHPGKAPKLMIYEGSKRPSGVSNRFSGSKSGNTASLTISGLQAEDEADYYCSSYTTRSTRVFGGGTKLTVL
notes: phage scFv
B19: N1wc145 (scFv, V domains shown)
VH: B18 VH with Q1E, Q6E, S31T, A53T, N59K, L99D, S101R, R102K
VL: B18 VL with Q1H, S2V, V3I, A8R
notes: phage scFv
B20: N1wc106 (scFv, V domains shown)
VH: QVQLVQSGAEVKRPGASVNLSCKASGYSFSRYYIHWVRQAPGQGLELMGRINPGGGTTTYAQKFQGRVTLSRDTSTNTIFMELNGLTSEDTAMYYCARSNYDILAGYGPDAFDFWGRGTLVTVSS
VL: QAVLTQPSSVSGAPGQRVTISCTGSSSNIGADNDVHWYQKFPGTAPKLLIFSNNNRPSGVPDRFSGSKSGTSASLAITGLQADDEADYYCQSYDSGLTRELFGGGTKLTVL
notes: phage scFv
B21: N1wc142 (scFv, V domains shown)
VH: B20 VH with Q1E, R13K, L120M
VL: QSVLTQPPSVSGAPGQRVTISCIGSNSNIGAGHDVHWYQQFPGTAPKLLIYDNTNRPSGVPDRFSGSKSGTSVSLAITGLQAEDEADYYCQSYDSSLGEVFGGGTKLTVL
notes: phage scFv
B22: N1wc157 (scFv, V domains shown)
VH: QVQLVQSGAGLKRPGTSVKISCKTSGYIFSQYPMHWVRQAPGQGLEWVAWVDTGNGTTRYSPNFQGRATVSGDTSANTGYLELRSLRFTDTAVYYCATNAFDYWGRGTLVTVSS
VL: SYELTQPPSVSVSPGQTARITCSGDALPDKYVHWYQQKSGQAPVLVLFDDSKRPSGIPERFSGSSSGTVATLIISGAQVEDEGDFFCYSTDSSGNERVFGGGTKLTVL
notes: phage scFv
B23: N1wc140 (scFv, V domains shown)
VH: QVQLQQSGAEVKKPGSSVKVSCRASGGTFSNYAISWVRQAPGQGLEWMGRIIPIFGGAHYAQKLQGRVSITADESTSTAHMELSSLRSEDAAVYYCASGAYYDVMGNYPYSGMDVWGRGTLVTVSS
VL: SYVLTQPPSVSVSPGQTAKITCGGDKIETKSVHWYQQKPGQAPVLVIYEDTKRPSGISERLSGSSAGTVATLTITGAQVDDEADYFCYSTDATGTERVFGGGTKLTVL
notes: phage scFv
B24: N1wc137 (scFv, V domains shown)
VH: QVQLVQSGAEVKKPGASVKVSCKASGYTFTNYGLSWVRQAPGQGLEWMGWISGYNDNTSYAQKFQDRITMTTDTSTSTASMELRSLRSDDTAVYYCAFSYYDSSGYFNWGQGTMVTVSS
VL: QAVLTQPSSVSGAPGQRVTVSCTGSSSNIGTGYAVHWYQQLPGTAPRLLIFGNNNRPSGVPDRFSGSKSGTSASLVITGLQAEDEADYYCQSFDTLSGSRVFGGGTKVTVL
notes: phage scFv

These binders were tested against T1, human full-length Notch1 with C-terminal FLAG tag, stably expressed on 293 FlpIn (TREx) cells (human, UniProt P46531 19-2555) (assay: FACS, phage scFv).
T1 construct: tetracycline/doxycycline-induced expression from pcDNA5/FRT/TO-HN1+FLAG; also called hN1; 293_N1

| Binder | binding result |
| --- | --- |
| B1 | binds |
| B2 | binds |
| B3 | binds |
| B4 | binds |
| B5 | binds |
| B6 | binds |
| B7 | binds |
| B8 | binds |
| B9 | binds |
| B10 | binds |
| B11 | binds |
| B12 | binds |
| B13 | binds |
| B14 | binds |
| B15 | binds |
| B16 | binds |
| B17 | binds |
| B18 | binds |
| B19 | binds |
| B20 | binds |
| B21 | binds |
| B22 | binds |
| B23 | binds |
| B24 | binds |
